The results in this text go back to patent publication US20220125947A1.

Substitutions are numbered along the chain they refer to.

The labels stand for the following.
B1: VG9B470 (antibody, human IgG1, kappa, V domains shown)
VH: QVTLKESGPTLVKPTQTLTLTCTFSGFSLTTSGVGVGWIRQPPGKALEWLALILWNDHTIYSPSLKSRLTITKDTSKNQVVLTMTNMDPVDTAAYFCARDKWELRDAFDIWGQGTMVTVSS
VL: EIVMTQSPSFLSASVGDRVTFTCRASQGISRYLAWYQQKPGRAPNLLIYVASTLQSGVPSRFSGSGSGTEFTLTISSLLPEDFATYYCQQLISYPYTFSQGTRLEIKR
B2: VG9B86 (antibody, human IgG1, kappa, V domains shown)
VH: QVQLQESGPGLVKPSETLSLTCTVSGDSISSSYWSWIRQPAGKGLECIGRFYSSGSTSYNPSLKSRVTMAIDTSKNQFSLKLTSVTAADTAVYYCARYSGSYWYFDLWGRGTTVTVSS
VL: EIVLTQSPATLSLSPGERATLSCRASQSVSSYLAWYQQRPGQAPRLLIYDTSNRATGIPARFSGSGSGTDFTLTISSLAPEDFAVYYCQQRSDWLLTFGGGTKVEIKR
B3: VG9B194 (antibody, human IgG1, lambda, V domains shown)
VH: EVQLLESGAEVKKPGASVKVSCKASGYTFTGDYMHWVRQAPGQGLEWMGWINPNSGYTNNAEKFQGRVTMTRDTSISTAYMELSRLSSDDTAVYYCTRELDALDVWGQGTMVTVSS
VL: QSVLTQPPSASGSPGQSVTISCTGTSSDVGGYNYVSWYQQHPGKAPKLMIYEVSKRPSGVPDRFSGSKSGNTASLTVSGLQAEDEADYYCNSYAGSNNFEVFGGGTKVTVLG
B4: VG9B411 (antibody, human IgG1, kappa, V domains shown)
VH: EVQLVESGGGLVKPGGSLRLSCSASGFTFSNYDMNWVRQAPGKGLEWVSSISSSSSYIYYADSVKGRFTISRDNAKNSLYLQMNSLRAEDTAVYHCARDVGVTTDYYYYGMDVWGQGTTVTVSS
VL: EIVMTQSPSSVSASVGDRVTITCRASQGINSWLAWYQQDPYKAPKLLIYAASTLQSGVPSRFGGRGSGTEFTLTISSLQPEDFAVYYCQQYNNWPRTFGQGTKVDIKR
B5: VG9B201 (antibody, human IgG1, lambda, V domains shown)
VH: QVTLKESGPTLVKPTQTLTLTCTFSGFSLTTHGVGVGWIRQPPRKALEWLALIYWNADKHYSPSLKSRLTITKDTSKNQVVLTMTHMDPVDTATYYCAHEGDWGHYFDFWGQGTLVTVSS
VL: QLVLTQPPSVSAAPGQKVTISCSGSSSNIGNNDVSWYQQLPGTAPKLLIYDNNRRPSGIPDRFSGSKSGTSATLGITGLQTGDEADYYCETWDSSLSAIWVFGGGTKVTVLG
B6: VG9B396 (antibody, human IgG1, lambda, V domains shown)
VH: EVQLVESGPGLVQPSETLSLTCTVSGDSIRGYYWNWIRQPAGKGLEWIGRIFTTGNTNYNPSLKSRLTMSLDTSKNQFSLKLNSVTAADTAVYYCAREKWDSSSSALYFDFWGQGTLVTVSS
VL: QSVLTQAPSVSGAPGQRVTISCTGSSSNIGADYDVKWYQQLPGTAPKLLIYGNTDRPSGVPDRFSGSKSGTSASLAITGLQAEDEADYYCQSYDSRLTGYVVFGGGTKLTVLG
B7: VG9B382 (antibody, human IgG1, lambda, V domains shown)
VH: QVQLQESGPGLVKPSETLSLTCTVSGDSISGYYWNYIRQPAGKGLDWIGRIFTTGNTNYNPSLKSRVTMSVDTSKNQFSLKLTSVTAADTAVYYCARERWDSSSSALYFDYWGQGTLVTVSS
VL: B6 VL with A7P, V35I, T54S, D55N, A73V, R96S, L97M, T98S
B8: VG9B383 (antibody, human IgG1, lambda, V domains shown)
VH: QVQLQESGPGLVKPSETLSLTCTVSSGSISSYYWNWIRQPAGKGLEWVGRIYTIGNTNYNPSLKSRVTMSIDTSKNQFSLNLSSVTAADTAVYFCAREGYYDSSGSFFPGAFGIWGQGTMVTVSS
VL: SSELTQPASVSGSPGQSITISCTGTSNDVGSYNLVSWYQQHPGKAPKLMIYAGSKRPSGISNRFSGSKSGNTASLTISGLQAEDEADYYCCSFAGATNVVFGGGTKLTVLG
B9: VG9B465 (antibody, human IgG1, lambda, V domains shown)
VH: QVQLQQSGPGLVKPSETLSLTCTVSGGSITSYYWNWIRQPAGKGLEWIGRIYTIGNTNYNPSLKSRVTMSIDTSKHQFSLKLSSVTGADTAVYYCAREGYYESDGSFFPGAFNIWGQGTMVTVSS
VL: B8 VL with F93Y, A96T, L107V
B10: VG9B103 (antibody, human IgG1, kappa, V domains shown)
VH: EVQLVQSGAEVKKPGSSVKVSCKTSGGTFSSYAISWVRQAPGQGLEWMGGIIPIFGTATYAQKFQDRVTITADKSTSTAYMELSSLRSEDTAVFYCARGVGWGTDYYYGLDVWGQGTTVTVSS
VL: ETTLTQSPLSSPVTLGQPASISCRSSQGLVHSDGNTYLSWLQQRPGQSPRLLIYKISNRFSGVPDRFSGSGAGTDFTLKISRVEAEDVGVYYCMQATHHPLTFGGGTKVEIKR
B11: VG9B380 (antibody, human IgG1, lambda, V domains shown)
VH: QVQLQESGPGLVKPSETLSLTCTVSGGSISNYYWSWIRQPAGKGLEWIGRIYPSGITSYDPSLKSRVTMSLDTSKNQFSLKLTSVTAADTAVYYCAGIMGTKGAFDIWGQGTMVTVSS
VL: QSALTQPASVSGSPGQSITISCTGTSSDVGGYNYVSWYQQHPGKAPKLLIYEVSNRPSGVSNRFSGSKSGSTASLTISGLQAEDEADYYCSSYTSTSVVFGGGTKLTVLG
B12: VG9B203 (antibody, human IgG1, lambda, V domains shown)
VH: QVQLVQSGPGLVKPSETLSLTCTVSGDSIGHYYWNWIRQPAGKGLEWIGRIYTSGSTNYNPSLKSRVTMSVDTSKNQFSLKLSSVTAADTAVYYCARSGGNFYWYFDLWGRGTLVTVSS
VL: QSVLTQPPSVSAAPGQKVTISCSGSSSNIGNNYVSWYQQVPGTAPKLLIYDNNKRPSGIPDRISGSKSGTSATLGITGLQTGDEADYYCGTWDSSLSAGVFGGGTKVTVLG
B13: VG9B163 (antibody, human IgG1, lambda, V domains shown)
VH: QVQLVQSGGGLVKPGASLKLSCAASGFTFSNHGMSWVRQTSDKRLEWVASITRGGDTTYYPDNVKGRFTISRENAKNTLYLQMSSLKSDDTALYYCTRGPLTVGYAMDYWGQGTTVTVSS
VL: B12 VL with S2L, S25N, N31H, V40L, K54Q, I63F, G69D, T91I, A98I, G99V
B14: VG9B147 (antibody, human IgG1, lambda, V domains shown)
VH: QVQLQESGPGLVNPSETLSLTCTVSGGSISGYFWNWIRQPPGKGLEWIGYIFYSGSTNYNPSLKSRVTISVDTSKNQFSLKLSSVTAADTAIYYCAREGKWELRSTFDIWGQGTMVTVSS
VL: SSELTQDPAVSVALGQTVRITCQGDSLRSYYATWYQQKPGQAPILVIYGENNRPSGIPDRFSGSRSGNTASLTITGAQAEDEADYYCNSRDTGDHHLVFGGGTKLTVLG
B15: VG9B114 (antibody, human IgG1, kappa, V domains shown)
VH: EVQLVESGGDLVQPGGSLRLSCAASGFTFSRYDMHWVRQATGKGLEWVSAIGSAGDTYYPGSVKGRFTISRENAKNSLYLQMNSLRAGDTAVYYCARGKWELRDAFDIWGQGTMVTVSS
VL: DIVMTQSPSFLSASVGDRVTITCRASQGIHSYLAWYQQKPGKAPKLLIYVASTLQSGVPSRFSGSRSGTEFTLTISSLQPEDFATYYCQQLNSYPYTFGQGTKLEIKR
B16: VG9B81 (antibody, human IgG1, kappa, V domains shown)
VH: QVQLQESGPGLVKPSETLSLTCSVSGGSINTYYWSWFRQPAGKGLELIGRIYTSDNTNYNPSLKSRVTMSVDTSKNQFSLKLSSVTAADTAVYYCARYNWNYWYFDLWGRGTLVTVSS
VL: B15 VL with V3Q, G16R, T20N, H30S, V50T, R66G, Q90H, L104V

Sequence of Vg5/Vd2 T cell receptor expressed on SKW3 cells (A0JD36 20-115): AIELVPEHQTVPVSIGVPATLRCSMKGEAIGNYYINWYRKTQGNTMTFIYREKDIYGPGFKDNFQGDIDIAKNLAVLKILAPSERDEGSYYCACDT
Sequence of Vg9/Vd2 T cell receptor on SKW3_4 cells (Q99603 21-122, chain 1 of 2): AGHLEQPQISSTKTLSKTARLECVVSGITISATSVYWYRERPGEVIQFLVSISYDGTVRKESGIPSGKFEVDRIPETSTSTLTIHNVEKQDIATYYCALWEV
Sequence of Vg9/Vd2 T cell receptor on SKW3_4 cells (A0JD36 20-115, chain 2 of 2, further chain): as the sequence (A0JD36 20-115) above
Sequence of Vg9/Vd1 T cell receptor expressed on SKW3 cells (Q99603 21-122): as the sequence (Q99603 21-122, chain 1 of 2) above
Sequence of Vg9/Vd2 T cell receptor expressed on SKW3_4 cells (Q99603 21-122, chain 1 of 2): as above
Sequence of Vg9/Vd2 T cell receptor expressed on SKW3_4 cells (A0JD36 20-115, chain 2 of 2, further chain): as the sequence (A0JD36 20-115) above

For one experiment, the target named is Vg5/Vd2 T cell receptor on SKW3 cells (UniProt A0JD36). Nature of the experiment: flow cytometry, DRC binding at 37°C on SKW3 cells expressing Vg5/Vd2. (In general: A flow cytometer gives signals particle by particle.)
Sequence of Vg5/Vd2 T cell receptor on SKW3 cells (A0JD36 20-115): as above
With B1, the Max. Activity (fold over background) was found to be 231.
Still for that read-out and setting: with B2 the figure was 207; with B3, 148.
Still for that read-out and setting: with B4 the figure was 2.76.
Still for that read-out and setting: for B5 the value was 205; for B6, 222; for B7, 275.
The molecule B8 came in with a Max. Activity (fold over background) of 284.
The same measure, in the same setting: with B9 the figure was 214.

In the next experiment the target is Vg9/Vd1 T cell receptor on SKW3 cells (UniProt Q99603). Nature of the experiment: flow cytometry, DRC binding at 37°C on SKW3 cells expressing Vg9/Vd1.
Sequence of Vg9/Vd1 T cell receptor on SKW3 cells (Q99603 21-122): as the sequence (Q99603 21-122, chain 1 of 2) above
In turn, B1 returned a Max. Activity (fold over background) of 1.59.
B2: the Max. Activity (fold over background) is 1.16.
B3 registered a Max. Activity (fold over background) of 6.29.
On the same count and under the same terms, for B4 the value was 24.9.
Same read-out and setting: with B5 the figure was 2.74; with B6, 2.19; with B7, 1.04.
Still for that read-out and setting: with B8 the figure was 1.36; with B9, 7.28.

A further experiment has as its target Vg9/Vd2 T cell receptor on SKW3_4 cells (UniProt Q99603). The experiment can be described thus: flow cytometry, DRC binding at 37°C on SKW3_4 cells expressing Vg9/Vd2.
With B1, the Max. Activity (fold over background) was 167.
The molecule B2 displayed a Max. Activity (fold over background) of 138.
On the same count and under the same terms, with B3 the figure was 151; with B4, 19.1.
In turn, B5 had a Max. Activity (fold over background) of 152.
On the same count and under the same terms, for B6 the value was 155; for B7, 177.
On the same count and under the same terms, with B8 the figure was 184; with B9, 148.

Another experiment has as its target Vg5/Vd2 T cell receptor expressed on SKW3 cells (UniProt A0JD36). The experiment can be described thus: flow cytometry, dose-response binding at 37 C, SKW3 cells expressing Vg5/Vd2.
In turn, B10 displayed a Max. Activity (fold over background) of 237.
Turning to B11, the Max. Activity (fold over background) was 233.
On the same count and under the same terms, with B12 the figure was 194; with B13, 48.9.
The same measure, in the same setting: with B14 the figure was 69.8; with B15, 226; with B16, 77.

Another experiment concerns the target Vg9/Vd1 T cell receptor expressed on SKW3 cells (UniProt Q99603). Nature of the experiment: flow cytometry, dose-response binding at 37 C, SKW3 cells expressing Vg9/Vd1.
The molecule B10 registered a Max. Activity (fold over background) of 1.79.
On the same count and under the same terms, with B11 the figure was 11.6; with B12, 1.3.
B13 displayed a Max. Activity (fold over background) of 10.6.
The molecule B14 showed a Max. Activity (fold over background) of 1.59.
Turning to B15, the Max. Activity (fold over background) turned out to be 8.38.
Same read-out and setting: with B16 the figure was 1.17.

The next experiment addresses Vg9/Vd2 T cell receptor expressed on SKW3_4 cells (UniProt Q99603). Nature of the experiment: flow cytometry, dose-response binding at 37 C, SKW3_4 cells expressing Vg9/Vd2.
Molecule B10 displayed a Max. Activity (fold over background) of 96.4.
Molecule B11 had a Max. Activity (fold over background) of 164.
On the same count and under the same terms, with B12 the figure was 143.
B13 displayed a Max. Activity (fold over background) of 57.2.
The molecule B14 came in with a Max. Activity (fold over background) of 30.5.
Consider B15, for which the Max. Activity (fold over background) was 176.
Still for that read-out and setting: with B16 the figure was 42.2.
